Test results as given in patent US20140243208, “COMPOSITIONS AND METHODS FOR SELECTING APTAMERS” (Mediomics, LLC, published 2014).
Residue numbers refer to the chain shown, from its start.

T1: Alpha-fetoprotein (Homo sapiens, UniProt P02771 P02771:19-609)
T1 sequence: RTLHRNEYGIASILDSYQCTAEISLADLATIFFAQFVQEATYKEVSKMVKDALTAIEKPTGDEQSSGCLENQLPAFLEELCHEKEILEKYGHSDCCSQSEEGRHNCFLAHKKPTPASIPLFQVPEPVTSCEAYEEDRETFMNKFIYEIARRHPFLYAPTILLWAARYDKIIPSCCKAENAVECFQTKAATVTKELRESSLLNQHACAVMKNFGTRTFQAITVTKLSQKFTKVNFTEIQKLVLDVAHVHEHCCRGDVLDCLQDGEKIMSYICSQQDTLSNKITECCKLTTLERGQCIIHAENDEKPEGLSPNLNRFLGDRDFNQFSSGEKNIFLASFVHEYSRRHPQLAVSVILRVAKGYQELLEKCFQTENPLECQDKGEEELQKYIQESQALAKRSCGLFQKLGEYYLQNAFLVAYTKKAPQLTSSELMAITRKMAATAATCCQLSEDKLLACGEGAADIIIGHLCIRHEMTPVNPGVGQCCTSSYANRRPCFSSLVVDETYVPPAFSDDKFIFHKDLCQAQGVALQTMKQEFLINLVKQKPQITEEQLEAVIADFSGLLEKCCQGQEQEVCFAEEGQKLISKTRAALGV

T2: C-reactive protein (CRP) (Homo sapiens, UniProt P02741 P02741:19-224)
T2 sequence: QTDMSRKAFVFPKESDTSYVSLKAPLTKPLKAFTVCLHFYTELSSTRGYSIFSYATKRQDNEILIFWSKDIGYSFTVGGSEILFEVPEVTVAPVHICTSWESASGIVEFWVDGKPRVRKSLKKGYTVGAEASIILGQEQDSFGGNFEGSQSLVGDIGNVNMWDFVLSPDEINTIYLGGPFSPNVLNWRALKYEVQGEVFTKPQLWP

B1: TNI-4 (ssDNA)
DNA: CTGTCGTTAGTGAAGGTTGCCAAGCGAACTGCGACAGGGGATCCAGGAGACGGCCCCAACGCCATATCACAGACG
B2: TNI-1 (= TNI-B1, TNI-N1, TNI-MEDI1) (ssDNA)
DNA: CTGTCGTTAGTGAAGGTTGGCAACAACGACCGGGACTAACGGCAGCAGCGACACCGGTAACGCCATATCACAGACG
B3: TNI-3 (ssDNA)
DNA: CTGTCGTTAGTGAAGGTTGGCGGCGGACCGGAACGAGCGGCAGTCGCAGTCGACCCCAACGCCATATCACAGACG
B4: IL-10-6 (ssDNA)
DNA: TAGGTGCTCGACGCTGACCGGGCATTGACACCTTATCGTGGGGTGGGGACTCAGTCGCAGGTCATG
B5: IL-10-3 (ssDNA)
DNA: TAGGTGCTCGACGCTGACCCACGAAAGACACCGCAGTCCCTCCACGCTACTCAGTCGCAGGTCATG
B6: TNI-N3 (= TNI-MEDI2) (ssDNA)
DNA: CTGTCGTTAGTGAAGGTTGGCGCAGGAACCTGAACGTTCGACGGGGTCGGCACCTGTAACGCCATATCACAGACG
B7: TNI-CRP1 (ssDNA)
DNA: TAGGTGCTCGACGCTGACCCAGACCCACCAATATATGCCCCGCGGTGTACTCAGTCGCAGGTCATG
B8: TNI-B3 (ssDNA)
DNA: B3 DNA with G35T, G46A
B9: TNI-B2 (= TNI-N2) (ssDNA)
DNA: CTGTCGTTAGTGAAGGTTGCAGGCACGCTGCGATATGTCCAGTTGACCCGGTTTGCCAACGCCATATCACAGACG
B10: TNI-CRP3 (ssDNA)
DNA: TAGGTGCTCGACGCTGACCCAGGGGACACCTATCAATCGTCGTGCGGTACTCAGTCGCAGGTCATG
B11: TNI-B4 (ssDNA)
DNA: CTGTCGTTAGTGAAGGTTGCCCCGGGAACCGAAACTTGCGACCTGTCGTCACCTTGTAACGCCATATCACAGACG
B12: TNI-CRP2 (ssDNA)
DNA: TAGGTGCTCGACGCTGACCCAGGACGGCACCTTAACCGCGCGTGGGCTACTCAGTCGCAGGTCATG
B13: TNI-CRP4 (ssDNA)
DNA: TAGGTGCTCGACGCTGACGGGCGACACCGAGGGGGCTGGGGCGCGGGTACTCAGTCGCAGGTCATG
B14: TNI-B5 (ssDNA)
DNA: CTGTCGTTAGTGAAGGTTGGCGGCGGACCGGAACGAACGGCAGCAGCGACACCGGTAACGCCATATCACAGACG
B15: TNI-2 (ssDNA)
DNA: B2 DNA with C21T
B16: IL-10-1 (ssDNA)
DNA: TAGGTGCTCGACGCTGACCCAGGGCTACACCTTATCCATTCGCGCGGTACTCAGTCGCAGGTCATG
B17: IL-10-4 (ssDNA)
DNA: TAGGTGCTCGACGCTGACCCCCCAGTCACACCTTATGACCGTCCCGCCACTCAGTCGCAGGTCATG
B18: IL-10-2 (ssDNA)
DNA: TAGGTGCTCGACGCTGACCCAATCCTGACACACCGTATTAAGCCGCGTACTCAGTCGCAGGTCATG
B19: IL-10-5 (ssDNA)
DNA: TAGGTGCTCGACGCTGACCCAGGCACACCTATCCAACTGTCACCGGCCACTCAGTCGCAGGTCATG

What follows are binders tested against T1, Alpha-fetoprotein (assay: ELONA; specificity control). Details: label: hybridized biotin-labeled primer.
B1: no binding.
B2: no binding.
B3: no binding.

These binders were tested against T3, Troponin I (TnI) (Homo sapiens, UniProt P19429 P19429:2-210) (assay: ELONA; specificity control). Details: tags: coated on ELISA plate; label: hybridized biotin-labeled primer.
T3 sequence (P19429 2-210, one chain of several): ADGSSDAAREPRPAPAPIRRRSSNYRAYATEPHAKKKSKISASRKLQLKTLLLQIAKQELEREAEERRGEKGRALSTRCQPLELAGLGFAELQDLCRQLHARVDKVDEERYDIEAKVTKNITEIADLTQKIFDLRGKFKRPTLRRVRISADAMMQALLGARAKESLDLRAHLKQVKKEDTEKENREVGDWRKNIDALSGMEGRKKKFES
B4: no binding.
B5: no binding.

These binders were tested against T2, C-reactive protein (CRP) (assay: ELONA; specificity control). Details: chain copies: 5; label: hybridized biotin-labeled primer.
B4: no binding.
B1: no binding.
B2: no binding.
B3: no binding.
B5: no binding.

Each binder was assayed against Serum albumin (Homo sapiens, UniProt P02768 P02768:25-609) (assay: ELONA; specificity control). Details: label: hybridized biotin-labeled primer.
Sequence of Serum albumin (P02768 25-609, one chain of several): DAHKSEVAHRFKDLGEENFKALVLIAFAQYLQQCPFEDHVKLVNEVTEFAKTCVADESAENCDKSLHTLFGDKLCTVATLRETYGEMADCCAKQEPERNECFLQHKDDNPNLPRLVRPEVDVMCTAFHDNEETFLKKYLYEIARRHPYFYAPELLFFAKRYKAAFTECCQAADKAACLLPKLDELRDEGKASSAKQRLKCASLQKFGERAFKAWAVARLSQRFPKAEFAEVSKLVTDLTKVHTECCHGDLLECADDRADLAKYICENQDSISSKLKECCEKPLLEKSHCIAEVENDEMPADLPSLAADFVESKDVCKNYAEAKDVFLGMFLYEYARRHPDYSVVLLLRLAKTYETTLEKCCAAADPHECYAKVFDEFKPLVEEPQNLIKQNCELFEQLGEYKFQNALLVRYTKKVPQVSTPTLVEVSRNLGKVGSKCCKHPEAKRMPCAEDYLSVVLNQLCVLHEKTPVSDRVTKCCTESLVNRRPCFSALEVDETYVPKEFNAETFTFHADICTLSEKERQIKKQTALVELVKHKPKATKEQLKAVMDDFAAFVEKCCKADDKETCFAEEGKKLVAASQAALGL
B4: no binding.
B1: no binding.
B2: no binding.
B3: no binding.
B5: no binding.

The binders below were run against T3, Troponin I (TnI) (assay: ELONA; values only in figure). Details: tags: coated on ELISA plate; label: hybridized biotin-labeled primer.
B6: binds.
B7: binds.
B8: binds.
B9: binds.
B10: binds.
B11: binds.
B12: binds.
B13: binds.
B14: binds.

Each binder was assayed against T3, Troponin I (TnI) (assay: ELONA; very similar affinity to the other TNI aptamers). Details: tags: coated on ELISA plate; label: hybridized biotin-labeled primer.
B15: binds.

The binders below were run against Interleukin-10 (IL-10) (Homo sapiens, UniProt P22301 P22301:19-178) (assay: ELONA; only IL-10-3 and IL-10-6 of 6 showed potential binding). Details: tags: coated on ELISA plate; chain copies: 2; label: hybridized biotin-labeled primer.
Sequence of Interleukin-10 (IL-10) (P22301 19-178, one chain of several): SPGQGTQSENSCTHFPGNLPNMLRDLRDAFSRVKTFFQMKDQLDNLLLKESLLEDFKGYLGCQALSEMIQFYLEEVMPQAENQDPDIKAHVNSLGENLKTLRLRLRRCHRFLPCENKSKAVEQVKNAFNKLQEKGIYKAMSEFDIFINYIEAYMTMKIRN
B16: no binding.
B17: no binding.
B18: no binding.
B19: no binding.
